In article PMC3128532:

Molecular target: MBP-tagged TANGO1-Coil2 (amino acids 1440-1650) (human) (UniProt Q5JRA6)
Assay: pull-down

UniProt Q5JRA6, sequence (Q5JRA6 1440-1650): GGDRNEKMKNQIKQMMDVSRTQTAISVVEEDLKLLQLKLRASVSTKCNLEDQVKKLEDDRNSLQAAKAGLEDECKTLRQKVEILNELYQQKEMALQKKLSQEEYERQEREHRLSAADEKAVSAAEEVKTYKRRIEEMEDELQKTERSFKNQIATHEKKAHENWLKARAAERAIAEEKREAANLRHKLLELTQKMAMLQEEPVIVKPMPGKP

“ColdTF-tagged cTAGE5-Coil2 (amino acids 301-650) (domain or fragment)” was tested, and the stoichiometry N was 1.
